From patent US20180282407A1 (FUKUSHIMA MEDICAL UNIVERSITY, published 2018)
Like-named read-outs stand apart in the source and are kept apart here. Ends that are not written are not given here.

T1: Ocln3 (human)
T1 construct: also called Ocln3 peptide
T1 peptide: QFYTPAATG

T2: antigenic occludin peptide of SEQ ID NO: 7 (positions 214 to 230 of human occludin, second extracellular … (human, also: KLH carrier linked at N-terminus for immunisation, ELISA form not given here))
T2 construct: also called the antigen; antigenic peptide
T2 peptide: ALCNQFYTPAATGLYVD

T3: Ocln1 (human)
T3 construct: has a cysteine and can form a dimer, so the ELISA was also run under acidic conditions (2 N HCl); also called Ocln1 peptide
T3 peptide: ALCNQFYTPA

B1: mouse anti-human occludin monoclonal antibody clone 67-2 (antibody, IgG1, V domains shown)
VH: EVQLQQSGPELVKPGASVKISCKASGYTFTDYIMDWVKQSHGKSLEWIGYIYPNNGGTGYNQKFKSKATLTIDKSSSTAYMELHSLTSEDSAVYYCAREDGDYGYFDVWGAGTTVTVSS
VL: QAVVTQESALTTSPGGTVILTCRSSTGAVTTSNYANWVQEKPDHLFTGLIGGTSNRAPGVPVRFSGSLIGDKAALTITGAQTEDDAMYFCALWYSTHYVFGGGTKVTVLG
notes: Mouse antibody from hybridoma C67-2; also called 67-2 antibody; anti-occludin antibody 67-2

Tests used:
[1] = molecular target: human CD81 protein (human) (UniProt P60033); assay: cell-based or functional assay
Chain of human CD81 protein (human) (P60033 whole entry): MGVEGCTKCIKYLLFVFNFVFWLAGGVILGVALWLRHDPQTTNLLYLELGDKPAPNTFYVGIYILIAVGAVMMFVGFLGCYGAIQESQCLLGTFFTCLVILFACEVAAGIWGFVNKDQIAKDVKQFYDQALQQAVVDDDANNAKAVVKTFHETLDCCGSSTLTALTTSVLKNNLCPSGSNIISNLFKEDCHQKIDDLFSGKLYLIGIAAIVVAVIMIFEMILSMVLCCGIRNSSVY

[2] = molecular target: human CD81 protein (human) (UniProt P60033); assay: cell-based or functional assay; remark: listed apart in the source
[3] = molecular target: T1, Ocln3; assay: ELISA on coated peptide
Source text: (§1) Accordingly, Ocln1 consisting of the amino acid sequence represented by SEQ ID NO: 6 ([…]) by the truncation of 7 residues from the […] side of the amino acid sequence represented by SEQ ID NO: 7, Ocln2 consisting of the amino acid sequence represented by SEQ ID NO: 11 ([…]) by the truncation of 7 residues from the 5′-terminal side thereof, and Ocln3 consisting of the amino acid sequence represented by SEQ ID NO: 12 ([…]) by the truncation of 3 to 4 residues from both terminal sides were prepared as antigenic peptides (FIG. 11A). KLH-Ocln peptide (1 μg/well) was used as a positive control antigen.
(§2) Each antigenic peptide was added at 25, 50, 100, and 500 μg/well to an antigen sensitization microplate (Nunc/Thermo Fisher Scientific Inc.) and incubated overnight at room temperature. After blocking with 5% BSA/PBS/0.09% NaN₃ at 37° C. for 2 hours, the 67-2 antibody or normal mouse IgG was added thereto and incubated at room temperature for 1 hour. Ocln1 has a cysteine residue in the sequence and is therefore capable of forming a dimer. Therefore, the analysis was also conducted under acidic conditions (2 N HCl). […] The absorbance at 450 nm/655 nm was measured using a microplate reader. […]

[4] = molecular target: T2, antigenic occludin peptide of SEQ ID …; assay: ELISA of subclone culture supernatants on the antigen
[5] = molecular target: T3, Ocln1; assay: ELISA on coated peptide, acidic conditions (2 N HCl), HRP anti-mouse IgG
Source text: as §1, §2

Row | Molecule | infection inhibition rate, HCVpv H77, Huh7.5.1 monolayer culture (luciferase) [1] [%] | infection inhibition rate, HCVpv con1, Huh7.5.1 monolayer culture (luciferase) [1] [%] | infection inhibition rate, HCVpv 9-3, Huh7.5.1 monolayer culture (luciferase) [2] [%] | infection inhibition rate, HCVpv con1, Huh7.5.1 monolayer culture (luciferase) [2] [%] | binding result [3] | binding result [4] | binding result [5]
1 | anti-human CD81 antibody (JS-81 clone; BD Pharmingen) | 99.1 | 99.8 | 98 | 99 | – | – | –
2 | B1 | – | – | – | – | no binding | binds | binds
